Source: patent CN117003877A (XIANGYA HOSPITAL CENTRAL SOUTH UNIV, dated 2023)

Tests used:
[1] = molecular target: T1, 小鼠Prdx1蛋白 (endogenous mouse Prdx1 in liver, lung, kidney tissue and primary macrophages) (mouse, UniProt P35700 2-199); assay: Western blot on mouse liver, lung, kidney, primary macrophages
T1 construct: Endogenous protein, denatured on Western blot; also called 鼠源性Prdx1蛋白; 小鼠的Prdx1蛋白
T1 sequence (looked up): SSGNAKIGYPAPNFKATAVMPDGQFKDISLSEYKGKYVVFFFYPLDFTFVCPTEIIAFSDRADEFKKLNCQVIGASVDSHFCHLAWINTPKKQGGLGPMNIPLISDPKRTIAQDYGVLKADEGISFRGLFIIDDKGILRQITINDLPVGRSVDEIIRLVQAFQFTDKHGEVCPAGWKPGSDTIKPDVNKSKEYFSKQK

[2] = molecular target: T2, 人源性Prdx1重组蛋白 (recombinant peroxiredoxin 1 protein bought from Abclone) (human, UniProt Q06830 1-199, limits assumed); assay: ELISA on recombinant human Prdx1
T2 construct: Bought recombinant protein; also called 重组prdx1蛋白; 重组Prdx1
T2 sequence (looked up): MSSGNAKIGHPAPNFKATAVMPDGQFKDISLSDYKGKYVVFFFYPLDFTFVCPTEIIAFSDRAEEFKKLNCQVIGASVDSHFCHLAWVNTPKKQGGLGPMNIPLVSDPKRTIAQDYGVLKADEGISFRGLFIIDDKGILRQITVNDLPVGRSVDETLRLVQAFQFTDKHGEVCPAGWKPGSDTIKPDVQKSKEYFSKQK

binding result [1]: binds
binding result [2]: binds
B1: 抗Prdx1蛋白的单克隆中和抗体 (mouse monoclonal anti-human Prdx1 neutralizing antibody, Example 4) (antibody, V domains shown)
VH: QVQLQQSGPELMKPGASVKISCKATGYTFSNSWIEWVKQRPGHGLEWIGEILPGSGDTDYNEKFKGKATITADTSSNTAYMQLSSLTSEDSAVYYCASPYGDYFFANWGLGTLVTVSA
VL: DIVITQDELSNPVTSGESVSISCRSSKSLLYKDGKTYLNWFLQRPGQSPQLLIYLMSTRAAGVSDRFSGSGSGTDFTLEISRVKAEDVGVYYCQQLVEYPYTFGGGTKLEIK
notes: Mouse (BALB/c) hybridoma IgG purified from ascites on protein G; also called Prdx1单克隆抗体; Prdx1单克隆中和抗体
